Patent US8822187B1, “Polypeptides, nucleic acid molecules, and methods for synthesis of triterpenes” (University of Kentucky Research Foundation, priority 2011, dated 2014)

B1: Botryococcus braunii race B squalene synthase-like 1 (SSL-1), wild type, hexa-histidine tagged, SEQ ID NO: 2 (Botryococcus braunii) (protein)
chain: MTMHQDHGVMKDLVKHPNEFPYLLQLAATTYGSPAAPIPKEPDRAFCYNTLHTVSKGFPRFVMRLPQELQDPICIFYLLLRALDTVEDDMNLKSETKISLLRVFHEHCSDRNWSMKSDYGIYADLMERFPLVVSVLEKLPPATQQTFRENVKYMGNGMADFIDKQILTVDEYDLYCHYVAGSCGIAVTKVIVQFNLATPEADSYDFSNSLGLLLQKANIITDYNEDINEEPRPRMFWPQEIWGKYAEKLADFNEPENIDTAVKCLNHMVTDAMRHIEPSLKGMVYFTDKTVFRALALLLVTAFGHLSTLYNNPNVFKEKVRQRKGRIARLVMSSRNVPGLFRTCLKLANNFESRCKQETANDPTVAMTIKRLQSIQATCRDGLAKYDTPSGLKSFCAAPTPTK
B2: SSL-2: Botryococcus braunii race B squalene synthase-like 2 enzyme; bacterial form is truncated SSL-2-tr2 (protein)
chain: MVKLVEVLQHPDEIVPILQMLHKTYRAKRSYKDPGLAFCYGMLQRVSRSFSVVIQQLPDELRHPICVFYLILRALDTVEDDMNLPNEVKIPLLRTFHEHLFDRSWKLKCGYGPYVDLMENYPLVTDVFLTLSPGAQEVIRDSTRRMGNGMADFIGKDEVHSVAEYDLYCHYVAGLVGSAVAKIFVDSGLEKENLVAEVDLANNMGQFLQKTNVIRDYLEDINEEPAPRMFWPREIWGKYAQELADFKDPANEKAAVQCLNHMVTDALRHCEIGLNVIPLLQNIGILRSCLIPEVMGLRTLTLCYNNPQVFRGVVKMRRGETAKLFMSIYDKRSFYQTYLRLANELEAKCKGEASGDPMVATTLKHVHGIQKSCKAALSSKELLAKSGSALTDDPAIRLLLLVGVVAYFAYAFNLGDVRGEHGVRALGSILDLSQKGLAVASVALLLLVLLARSRLPLLTSASSKQ

Key:
Type in all cases: biochemical
[1] = Primary enzyme assay with 3H-FPP, PSPP content by acid phosphatase assay; details: 20 μg enzyme, 40 μM 3H-FPP, 37° C., 1 h
Experimental: (§1) Two primary enzyme assays (500 μl) were set up with 20 μg of purified SSL-1 or Nicotiana benthamiana squalene synthase (TSS) plus 40 μM ^3H-FPP. The assays were incubated at 37° C. for 1 h, then extracted 3× with 500 μl water saturated 1-butanol, pooled, and evaporated under a stream of nitrogen gas. The white residue was resuspended in 50 μl of 25 mM NH4HCO3 in 70% ethanol (v/v). An aliquot of the resuspension was analyzed by the acid phosphatase assay (described in supplemental FIG. 4) and shown to consist of 45% and 40% PSPP for the SSL-1 and TSS primary incubations, respectively. […] It was calculated that 1 μl of each resuspension contained ˜150 pmoles of 3H-PSPP. […] For comparison, enzyme assays were also set up containing 3 μM ^3H-FPP, 2 mM NADPH and either 1 μg each of SSL-1 plus SSL-3, or SSL-1 plus SSL-2. Additional control assays contained 5 μM ^3H-FPP, 2 mM NADPH, and either 1 μg of SSL-3 or SSL-2. The reactions were incubated at 37° C. for 15 min, stopped by addition of 50 μl 0.5 M EDTA, and extracted with 100 μl n-hexane. Aliquots of the hexane extracts, along with standards of squalene and botryococcene, were separated by silica TLC using n-hexane as the developing solvent. Standards were visualized with iodine vapors and the corresponding zones were analyzed by scintillation spectroscopy. […]

[2] = Secondary enzyme assays of SSL-3 or SSL-2 with PSPP versus FPP; details: 2 mM NADPH, 1 μg enzyme, 37° C., 15 min
Experimental: as §1

[3] = Substrate specificity of SSL-2 (bisfarnesyl ether formation); details: 37° C., 1 h
Experimental: The radioactivity incorporated in the zones corresponding to bisfarnesyl ether were determined by scintillation counting. Data represents mean±S.E.M.

Molecule	PSPP share of reaction product of primary incubation [1]	biosynthesis from PSPP versus FPP [2]	Bisfarnesyl ether formed ([3]; substrate 10 μM 1-3H-FPP)	Bisfarnesyl ether formed ([3]; substrate 10 μM 1-3H-farnesol)	Bisfarnesyl ether formed ([3]; substrate 10 μM FPP + 10 μM 1-3H-farnesol)
B1	45%				
B2		efficiently catalyze the biosynthesis of squalene and botryococcene, respectively, from PSPP but not FPP	13.5 +/− 3.3 pmoles /h · μg protein	0 pmoles /h · μg protein	16.3 +/− 0.4 pmoles /h · μg protein
